This note sets out measurements from patent US20220049017A1 (KYMAB, published 2022).

Experiment [1] has as its target T1, human PCSK9 D374Y gain-of-function mutant (human, UniProt Q8NBP7 31-692). As to the kind of experiment: cell-based or functional assay.
For experiment [2], the target named is T1, human PCSK9 D374Y gain-of-function …. The experiment is described as follows: cell-based or functional assay. This is another data set of the same source.
For experiment [3], the target named is T2, mouse PCSK9 (mouse, UniProt Q80W65 35-694, limits assumed).
T2 construct: also called mPCSK9; PCSK9 mouse
T2 sequence (Q80W65 35-694 limits assumed): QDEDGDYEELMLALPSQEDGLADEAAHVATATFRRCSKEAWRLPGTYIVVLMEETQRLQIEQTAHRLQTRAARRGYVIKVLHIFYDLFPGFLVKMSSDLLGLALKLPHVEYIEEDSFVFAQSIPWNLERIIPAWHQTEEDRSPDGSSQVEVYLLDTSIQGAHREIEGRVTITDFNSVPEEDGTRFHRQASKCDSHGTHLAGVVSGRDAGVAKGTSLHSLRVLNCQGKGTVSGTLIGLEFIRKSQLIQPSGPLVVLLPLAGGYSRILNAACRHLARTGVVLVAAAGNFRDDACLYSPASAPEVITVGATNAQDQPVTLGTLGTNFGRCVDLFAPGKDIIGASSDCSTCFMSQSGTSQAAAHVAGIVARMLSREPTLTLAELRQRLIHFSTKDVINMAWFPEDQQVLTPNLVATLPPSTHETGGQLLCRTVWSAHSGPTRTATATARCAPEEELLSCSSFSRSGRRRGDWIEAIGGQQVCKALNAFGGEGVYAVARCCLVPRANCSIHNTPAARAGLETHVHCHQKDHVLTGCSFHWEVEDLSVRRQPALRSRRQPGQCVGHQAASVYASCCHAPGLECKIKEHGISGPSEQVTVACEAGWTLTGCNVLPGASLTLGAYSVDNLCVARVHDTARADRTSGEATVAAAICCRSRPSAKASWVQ
The experiment is described as follows: ProteOn SPR, captured antibody, pH 5.8.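 Further: antibodies captured on a GLC chip coated with anti-human Fc, rate constants from a 1:1 Langmuir fit of the sensorgrams, Kd derived from the fitted rates.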
Experimental: (§1) The SPR runs were performed using a GLC chip (Bio-Rad) immobilised with anti-human Fc antibodies. The analyte human antibodies were captured on the chip surface at 2 ug/ml. […] The chip surface was regenerated using two injections of 10 mM Glycine pH 1.5 for 160 seconds at 30 μl/min. The sensorgrams were then fitted with a 1:1 model (Langmuir kinetic model) where ka and kd are fitted and KD was calculated by the ProteOn software.

For experiment [4], the target named is T3, human PCSK9 variant a (human, UniProt Q8NBP7 31-692).
T3 construct: also called Human PCSK9 var A; hPCSK9a
As to the kind of experiment: ProteOn SPR, captured antibody, pH 5.8.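 Further: antibodies captured on a GLC chip coated with anti-human Fc, rate constants from a 1:1 Langmuir fit of the sensorgrams, Kd derived from the fitted rates.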
Experimental: as §1

Experiment [5] deals with T1, human PCSK9 D374Y gain-of-function …. The experiment is described as follows: ProteOn SPR, captured antibody, pH 5.8.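 Further: antibodies captured on a GLC chip coated with anti-human Fc, rate constants from a 1:1 Langmuir fit of the sensorgrams, Kd derived from the fitted rates.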
Experimental: as §1
Experiment [6] concerns the target T4, cynomolgus monkey PCSK9 (cynomolgus monkey, UniProt A8T662 31-692 (Macaca nemestrina entry), limits assumed).
T4 construct: also called Cyno PCSK9; cynoPCSK9
The experiment is described as follows: ProteOn SPR, captured antibody, pH 5.8.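 Further: antibodies captured on a GLC chip coated with anti-human Fc, rate constants from a 1:1 Langmuir fit of the sensorgrams, Kd derived from the fitted rates.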
Experimental: as §1

For experiment [7], the target named is T5, human PCSK9 variant b (human, UniProt Q8NBP7 31-692).
T5 construct: also called Human PCSK9 var B; hPCSK9b
As to the kind of experiment: ProteOn SPR, captured antibody, pH 5.8.
Experimental: as §1

Experiment [8] concerns the target T6, human PCSK9 reference (human, UniProt Q8NBP7 31-692). As to the kind of experiment: ProteOn SPR, captured antibody, pH 5.8.
Experimental: as §1
In experiment [9] the target is T2, mouse PCSK9. As to the kind of experiment: ProteOn SPR, captured antibody, pH 7.6.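 Further: antibodies captured via anti-human Fc on a GLC sensor chip, PCSK9 binding sensorgrams fitted to a 1:1 Langmuir model giving on and off rates, with KD derived from them.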
Experimental: as §1
Experiment [10] concerns the target T3, human PCSK9 variant a. The experiment is described as follows: ProteOn SPR, captured antibody, pH 7.6.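 Further: antibodies captured via anti-human Fc on a GLC sensor chip, PCSK9 binding sensorgrams fitted to a 1:1 Langmuir model giving on and off rates, with KD derived from them.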
Experimental: as §1
The target of experiment [11] is T1, human PCSK9 D374Y gain-of-function …. The experiment is described as follows: ProteOn SPR, captured antibody, pH 7.6.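 Further: antibodies captured via anti-human Fc on a GLC sensor chip, PCSK9 binding sensorgrams fitted to a 1:1 Langmuir model giving on and off rates, with KD derived from them.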
Experimental: as §1
Experiment [12] has as its target T4, cynomolgus monkey PCSK9. The experiment is described as follows: ProteOn SPR, captured antibody, pH 7.6.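 Further: antibodies captured via anti-human Fc on a GLC sensor chip, PCSK9 binding sensorgrams fitted to a 1:1 Langmuir model giving on and off rates, with KD derived from them.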
Experimental: as §1
The target of experiment [13] is T5, human PCSK9 variant b. As to the kind of experiment: ProteOn SPR, captured antibody, pH 7.6.
Experimental: as §1
The target of experiment [14] is T6, human PCSK9 reference. The experiment is described as follows: ProteOn SPR, captured antibody, pH 7.6.
Experimental: as §1
Experiment [15] deals with T1, human PCSK9 D374Y gain-of-function …. As to the kind of experiment: cell-based or functional assay. The source holds these as a separate data set.
Experiment [16] shares this target. As to the kind of experiment: cell-based or functional assay. The source holds these as a separate data set.

Changes are numbered by the printed parent chain. Where two headings read alike, the source gives them in different places.

T4 sequence (A8T662 31-692 limits assumed): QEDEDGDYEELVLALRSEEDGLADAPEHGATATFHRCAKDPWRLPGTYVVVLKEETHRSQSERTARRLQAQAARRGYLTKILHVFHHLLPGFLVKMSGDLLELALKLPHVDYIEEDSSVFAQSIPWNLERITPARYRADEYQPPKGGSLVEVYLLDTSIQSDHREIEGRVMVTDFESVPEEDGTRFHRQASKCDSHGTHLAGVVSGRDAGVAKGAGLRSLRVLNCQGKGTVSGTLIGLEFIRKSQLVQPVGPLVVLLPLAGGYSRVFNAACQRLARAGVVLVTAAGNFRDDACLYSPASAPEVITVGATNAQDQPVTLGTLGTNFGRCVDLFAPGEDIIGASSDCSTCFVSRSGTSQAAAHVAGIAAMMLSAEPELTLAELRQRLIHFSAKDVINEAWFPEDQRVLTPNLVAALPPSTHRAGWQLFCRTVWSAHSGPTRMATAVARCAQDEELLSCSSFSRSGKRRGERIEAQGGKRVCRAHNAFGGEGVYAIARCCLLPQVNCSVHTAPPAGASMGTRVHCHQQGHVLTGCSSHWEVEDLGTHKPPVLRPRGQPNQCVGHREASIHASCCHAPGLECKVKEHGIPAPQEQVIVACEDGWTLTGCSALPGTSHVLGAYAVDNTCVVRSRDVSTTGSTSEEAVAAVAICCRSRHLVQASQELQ

B1: Alirocumab hIgG4PE (antibody, V domains shown)
VH: EVQLVESGGGLVQPGGSLRLSCAASGFTFNNYAMNWVRQAPGKGLDWVSTISGSGGTTNYADSVKGRFIISRDSSKHTLYLQMNSLRAEDTAVYYCAKDSNWGNFDLWGRGTLVTVSS
VL: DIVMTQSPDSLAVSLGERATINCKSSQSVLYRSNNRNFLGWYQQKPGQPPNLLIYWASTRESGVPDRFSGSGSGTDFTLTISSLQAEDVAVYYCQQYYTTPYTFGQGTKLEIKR
With B1, in [1], the “IC50 (read off the curve)” value is about 2 nM.

B2: CL-274698 (antibody, V domains shown)
VH: QVQLQESGPGLVKPSGTLSLTCAVSGGSISSSKWWSWVRQPPGKGLEWIGETHYSGSTNYNPSLKSRVTISVDKSKNQFSLKLRSVTAADTAVYYCARVGATENFWGQGTLVTVSS
VL: EIVLTQSPATLSLSPGERATLSCRASQSVFRYLAWYQQKPGQAPRLLIYDASTRATDIPARFSGSGSGTDFTLTISSLEPEDFAVYYCQQRSNWPPTFGQGTKVEIK
notes: Human antibody with a kappa light chain, derived from a PCSK9 knockout mouse
As a reminder, the Kd is the concentration at which binding is half-saturated. A word on the koff: it is a measure of how fast the partners let go of each other. The kon is a measure of how fast the partners come together. For the molecule B2, the “IC50 (read off the curve)” value in [2] is about 4 nM. Also, the Kd amounted to 0.103 nM with mouse PCSK9 [3]; 0.0309 nM with human PCSK9 variant a [4]; 0.025 nM in [5]; 0.0297 nM with cynomolgus monkey PCSK9 [6]; 0.0262 nM in the experiment with human PCSK9 variant b [7]; 0.0286 nM with human PCSK9 reference [8]. Also, the dissociation constant (Kd) stood at 0.273 nM with mouse PCSK9 [9]; 0.0998 nM with human PCSK9 variant a [10]; 0.0689 nM in [11]; 0.0984 nM with cynomolgus monkey PCSK9 [12]; 0.091 nM with human PCSK9 variant b [13]; 0.0929 nM in the experiment with human PCSK9 reference [14]. Besides, the koff in the experiment with mouse PCSK9 [3] stood at 0.000137 s⁻¹; in the experiment with human PCSK9 variant a [4] it was 4.81e-05 s⁻¹; in experiment [5], 3.83e-05 s⁻¹; with cynomolgus monkey PCSK9 [6] it was 3.75e-05 s⁻¹; with human PCSK9 variant b [7] it was 4.19e-05 s⁻¹; with human PCSK9 reference [8] it was 4.6e-05 s⁻¹. For the same molecule, the koff with mouse PCSK9 [9] is 0.000257 s⁻¹; in the experiment with human PCSK9 variant a [10] it was 0.000136 s⁻¹; in experiment [11] it was 8.36e-05 s⁻¹; with cynomolgus monkey PCSK9 [12] it was 0.000108 s⁻¹; with human PCSK9 variant b [13] it was 0.000127 s⁻¹; with human PCSK9 reference [14], 0.000125 s⁻¹. In addition, the kon with mouse PCSK9 [3] was determined as 1.33e+06 M⁻¹ s⁻¹; in the experiment with human PCSK9 variant a [4] it was 1.56e+06 M⁻¹ s⁻¹; in experiment [5] it was 1.53e+06 M⁻¹ s⁻¹; with cynomolgus monkey PCSK9 [6], 1.26e+06 M⁻¹ s⁻¹; with human PCSK9 variant b [7], 1.6e+06 M⁻¹ s⁻¹; with human PCSK9 reference [8], 1.6e+06 M⁻¹ s⁻¹. Also, the association rate constant (kon) was 941000 M⁻¹ s⁻¹ with mouse PCSK9 [9]; 1.37e+06 M⁻¹ s⁻¹ with human PCSK9 variant a [10]; 1.21e+06 M⁻¹ s⁻¹ in experiment [11]; 1.1e+06 M⁻¹ s⁻¹ with cynomolgus monkey PCSK9 [12]; 1.39e+06 M⁻¹ s⁻¹ with human PCSK9 variant b [13]; 1.35e+06 M⁻¹ s⁻¹ with human PCSK9 reference [14].

B3: CL-274711 (antibody, V domains shown)
VH: QVQLQESGPGLVKPSQTLSLTCTVSGGSISSGGYYWSWIRQHPGKGLEWIGHIFYSGSTYYNPSLKSRVTISVDTSKNQFSLKLNSVTAADTAVYYCASEGGYYDIPDVWGQGTTVTVSS
VL: B2 VL with F30S, R31N, Y49S, T53N, D57G, V85I, P96L, Q100G
notes: Human antibody with a kappa light chain, generated by immunising a PCSK9 knockout mouse
For the molecule B3, the Kd with mouse PCSK9 [3] is 1.26 nM; in the experiment with cynomolgus monkey PCSK9 [6] it was 0.164 nM; with mouse PCSK9 [9], 0.889 nM; with cynomolgus monkey PCSK9 [12] it was 0.145 nM.

B4: CL-148219 (antibody, V domains shown)
VH: QVHLQESGPGLVKPSETLSLTCTVSGGSISSYYWSWIRQYPGKGLEWIGYISYSGSSNYNPSLKRRVTISRDTSKNQFSLNLTSVIAADTAVYYCARNLMIRGAYGMDVWGQGTTVTVSS
VL: DTVMTQSPLSLPVTPGEPASISCRSSQSLLHSNGYNYLDWYLQKAGQSPQLLIYLGSNRASGVPDRFSGSVSGTDFTLKISRVEAEDVGIYYCMQALQTPFTFGPGTKVDIK
modifications: NLT motif in heavy chain framework 3 confirmed N-glycosylated by mass spectrometry
notes: Human antibody, captured through anti-human Fc in the SPR assay
For the molecule B4, the “IC50 (read off the curve)” value was about 3 nM in experiment [15] and about 4 nM in experiment [1]. The Kd with mouse PCSK9 [3] came to 0.691 nM; with human PCSK9 variant a [4], 0.426 nM; in experiment [5], 0.431 nM; with cynomolgus monkey PCSK9 [6] it was 0.345 nM; in the experiment with human PCSK9 variant b [7], 0.412 nM; with human PCSK9 reference [8], 0.368 nM. For the same molecule, the Kd came to 0.52 nM with mouse PCSK9 [9]; 0.216 nM with human PCSK9 variant a [10]; 0.245 nM in experiment [11]; 0.296 nM with cynomolgus monkey PCSK9 [12]; 0.215 nM with human PCSK9 variant b [13]; 0.205 nM with human PCSK9 reference [14]. The koff with mouse PCSK9 [3] is 0.000701 s⁻¹; with human PCSK9 variant a [4], 0.000387 s⁻¹; in [5] it was 0.000391 s⁻¹; with cynomolgus monkey PCSK9 [6], 0.000336 s⁻¹; with human PCSK9 variant b [7] it was 0.000378 s⁻¹; with human PCSK9 reference [8] it was 0.000374 s⁻¹. Further, the koff in the experiment with mouse PCSK9 [9] is 0.000411 s⁻¹; with human PCSK9 variant a [10], 0.000234 s⁻¹; in experiment [11], 0.000233 s⁻¹; with cynomolgus monkey PCSK9 [12], 0.000284 s⁻¹; in the experiment with human PCSK9 variant b [13] it was 0.000225 s⁻¹; with human PCSK9 reference [14], 0.00023 s⁻¹. The kon in the experiment with mouse PCSK9 [3] turned out to be 1.01e+06 M⁻¹ s⁻¹; with human PCSK9 variant a [4], 908000 M⁻¹ s⁻¹; in experiment [5], 908000 M⁻¹ s⁻¹; with cynomolgus monkey PCSK9 [6] it was 975000 M⁻¹ s⁻¹; in the experiment with human PCSK9 variant b [7], 918000 M⁻¹ s⁻¹; with human PCSK9 reference [8], 1.02e+06 M⁻¹ s⁻¹. Also, the kon with mouse PCSK9 [9] was found to be 791000 M⁻¹ s⁻¹; with human PCSK9 variant a [10], 1.08e+06 M⁻¹ s⁻¹; in experiment [11], 949000 M⁻¹ s⁻¹; in the experiment with cynomolgus monkey PCSK9 [12] it was 958000 M⁻¹ s⁻¹; with human PCSK9 variant b [13], 1.05e+06 M⁻¹ s⁻¹; with human PCSK9 reference [14], 1.13e+06 M⁻¹ s⁻¹.

B5: CL-148219 QLT mutant (antibody, V domains shown)
VH: B4 VH with N81Q
VL: B4 VL
In the case of B5, the Kd in the experiment with mouse PCSK9 [3] amounted to 1.43 nM; with human PCSK9 variant a [4], 0.712 nM; in [5], 0.753 nM; with cynomolgus monkey PCSK9 [6] it was 0.568 nM; with human PCSK9 variant b [7], 0.694 nM; with human PCSK9 reference [8], 0.667 nM. In addition, the Kd was found to be 0.587 nM with mouse PCSK9 [9]; 0.267 nM in the experiment with human PCSK9 variant a [10]; 0.303 nM in experiment [11]; 0.352 nM in the experiment with cynomolgus monkey PCSK9 [12]; 0.257 nM with human PCSK9 variant b [13]; 0.272 nM with human PCSK9 reference [14]. Further, the koff with mouse PCSK9 [3] worked out at 0.000675 s⁻¹; with human PCSK9 variant a [4] it was 0.000429 s⁻¹; in [5], 0.000456 s⁻¹; with cynomolgus monkey PCSK9 [6], 0.000331 s⁻¹; with human PCSK9 variant b [7] it was 0.000421 s⁻¹; with human PCSK9 reference [8] it was 0.000415 s⁻¹. In addition, the koff in the experiment with mouse PCSK9 [9] is 0.000352 s⁻¹; with human PCSK9 variant a [10], 0.000229 s⁻¹; in experiment [11] it was 0.000219 s⁻¹; in the experiment with cynomolgus monkey PCSK9 [12] it was 0.000256 s⁻¹; in the experiment with human PCSK9 variant b [13] it was 0.000221 s⁻¹; with human PCSK9 reference [14] it was 0.000226 s⁻¹. Besides, the kon with mouse PCSK9 [3] came out at 472000 M⁻¹ s⁻¹; in the experiment with human PCSK9 variant a [4], 602000 M⁻¹ s⁻¹; in experiment [5], 606000 M⁻¹ s⁻¹; in the experiment with cynomolgus monkey PCSK9 [6] it was 584000 M⁻¹ s⁻¹; with human PCSK9 variant b [7], 607000 M⁻¹ s⁻¹; with human PCSK9 reference [8] it was 622000 M⁻¹ s⁻¹. Moreover, the kon in the experiment with mouse PCSK9 [9] is 600000 M⁻¹ s⁻¹; in the experiment with human PCSK9 variant a [10], 856000 M⁻¹ s⁻¹; in [11] it was 721000 M⁻¹ s⁻¹; with cynomolgus monkey PCSK9 [12], 728000 M⁻¹ s⁻¹; in the experiment with human PCSK9 variant b [13], 862000 M⁻¹ s⁻¹; in the experiment with human PCSK9 reference [14] it was 833000 M⁻¹ s⁻¹. The “IC50 (read off the curve)” value in experiment [16] is about 2 nM.
